From the DeepSol protein solubility set

Assay: soluble on expression in E. coli; label from the status in PepcDB or PDB records

MRGSHHHHHHGSSEPLILDAPNADACIIWLHGLGADRTDFKPVAEALQMVLPSTRFILPQAPSQAVTVNGGWVMPSWYDILAFSPARAIDEDQLNASADQVIALIDEQRAKGIAAERIILAGFSQGGAVVLHTAFRRYAQPLGGVLALSTYAPTFDDLALDERHKRIPVLHLHGSQDDVVDPALGRAAHDALQAQGVEVGWHDYPMGHEVSLEEIHDIGAWLRKRL
soluble on expression in E. coli: soluble

MQNGYTYEDYQDTAKWLLSHTEQRPQVAVICGSGLGGLVNKLTQAQTFDYSEIPNFPESTVPGHAGRLVFGILNGRACVMMQGRFHMYEGYPFWKVTFPVRVFRLLGVETLVVTNAAGGLNPNFEVGDIMLIRDHINLPGFSGENPLRGPNEERFGVRFPAMSDAYDRDMRQKAHSTWKQMGEQRELQEGTYVMLGGPNFETVAECRLLRNLGADAVGMSTVPEVIVARHCGLRVFGFSLITNKVIMDYESQGKANHEEVLEAGKQAAQKLEQFVSLLMASIPV
soluble on expression in E. coli: soluble

MGSDKIHHHHHHMQANKNIQKLTPYLSIPHKIWNSSQSNILKLDWNEATIPPSPYVIESIKKFLVNGNLNWYPNTKNLYLLDKIAEYTKQINSSFVELFEGSDSAHECIIDVFLDKCDKIGIVSPTYDNFRSRANGVGIETISFTLDDNFNLDFDSLEYFIHEKRIKLLYLCNPNNPTGKSYNIQKIKSLIINNPNVMFIIDEAYYEFTSQSVCDLVEQCNNLIITRTFSKAFALASFRIGYIISHPENIESINKLRNPKSVPMLSQIAANAALEDLQYMRDYVDEVSCARMEFVKFLNTLTTGGGGIFNDSVANFVLIQNENISLFVGFLEKEGIFIRNYSHLISKNCRISIGTRNQMSYVAEKIQEFAKKQGGFHLV
soluble on expression in E. coli: not soluble

MFPSPTPPLVSPTAVIEEENDDSVREFSRTLKSRLNCAMVKLSKEHEQVALIPPPPTEKIRKGSYSNKFAAKHRRCHSLDESKKFLSSLEDSSAHAAFLKAISSKHAKSNRVDNVNVSPLRWSSHRRTQSTQENSLQEVVAIDTLLKMSSSD
soluble on expression in E. coli: not soluble

MPHIVKSTILDAPTDAAWSVLRDFNGHDRWHPAVATSMIERAQPSDKIGCVRRFKLKDGSELREQLLALSDLEQSFSYCLLDTPVPMFNYVAHVRLLPVTDGDRTFWHWESRFTTRPEDKDRITHMVAEDIYQAGFEAIRRHLKEAASSWPLEHHHHHH
soluble on expression in E. coli: soluble

MAMIKQILRLLFLLAMYELGKYVTEQVYIMMTANDDVEAPSDYVFRAEVSELEHHHHHH
soluble on expression in E. coli: not soluble

MGSDKIHHHHHHLKPNNNTNKGVDYWTNRISELEMPALCSTVKSLEKLAKDDVSSLALLGRSVMHDNALTSRILRVANSAIYHKGSSQISTVSRAAIVLGFDAVRNICITAKLLSSLLESKNLAPNVYQRLIKLMAKAFQAAMIARMMLSHHDEEMQEEAFIASLLYHIGESAFWSIGGEFTEELDLTLCQCETPAEERSATREALGASFLQLTQSIARNWGLGELLIQALNYPEDQRPDIRAIFLADKLCDILSQPVLDKLELAKRMTQAAIFTGLEEKEFLVRMQRCANATHKLAEVYGAKVLLDYLPDPKRIVAAEPDLPPIPLDMPVYQVNLNIQLAKLRELTGFAINKADFNQIMQTVLEGILEGVGVDRCGVLLLSPSRKQLQPRVILGRDADAIKQEFIIDLSDKRGLFHQAMEHKAPLWVDDPSSKNGRSSARSCKRGTCHGRAFYWRLCWLIAK
soluble on expression in E. coli: not soluble

MASKSQKKVLKKQNKKKKKDPLAPKRALSAYMFYVKDKRLEIIKEKPELAKDVAQVGKLIGEAWGQLSPAQKAPYEKKAQLDKVRYSKEIEEYRKKNQE
soluble on expression in E. coli: soluble

MPETELHVIFDQPNEVFFPGQPISGRVVLSTTKEKYKARAVNIKILGLAHTSWTDYESVRRVDADGKVSHHRQSVHYSANVNYLDYTLLLWACKDGSNELAAGEYAWSFSYNLPLNVPPSFEGKYGYLRYSVTAEVDRPWRLDKAKKRCITVSPLIDLNVIPHALTQINDQASENLGCCCFKKGYLELRVNIPKTGFVPGETVPMNIHILNHSSVPVTEVKAKIIQQCKFIAYRNGTTFHYGGGYETGMSGQLQETKHDTKTVVKHGQEMTVAPRNEHKFAMELRLPSVTPTINQFSPVITVEYIVQFHVETSSTFGSDVDCEMGILIGTVPIRQFLPPAYYPQDPNLPQILPTPIGGGVVAPPPGYGFLPMADGSEKGAGDASYPAASMPMYPIPNVPYPSKDDGTVVIPSAPPLSYEESMFGQDGTELNTDENEQPFAPKYPVFNNLPVYNPTAPPPE
soluble on expression in E. coli: not soluble

AATTVNGGTVHFKGEVVNAACAVDAGSVDQTVQLGQVRTASLAQEGATSSAVGFNIQLNDCDTNVASKAAVAFLGTAIDAGHTNVLALQSSAAGSATNVGVQILDRTGAALTLDGATFSSETTLNNGTNTIPFQARYFATGAATPGAANADATFKVQYQGGGGGGAATTVNGGTVHFKGEVVNA
soluble on expression in E. coli: soluble

MKEANLLIDLRGEPGINCNGFCKFCYFRKVNKNNPQPFGCRYCQFTVGCDYCMYSVREINGDFIPLPFALMELQSSLLFKRYSKVNLTAGGDVSCYPQLEELCKAINNIGLKIHLGYTSGKGFDNVEIAKNLVDYGVDEVTFSVFSTNPKLRKEWMNDKNAETALKCLRYFCENCEVHCAIIVIPGVNDGEELKKTVSDLVDWGANAVILMRFANSEEQGLILGNAPLIEGIKPHSVEEFKNIVDEIHNEFGDYIRVTGTPLHDPVAGTPFALAKEENSHILERLKDKINGEATIITGNVAYPFLKKIFDETSVNVVKVNKDIADLITAKDLEKLDLKDVKETVFIPPKAFVHDRVAEEILRRDGVDRIVVRGVEQLTLDGEVSGIYTREEALKFEIEAFEELIGMINFFGMKKQ
soluble on expression in E. coli: not soluble

MGSDKIHHHHHHMLAALKKYLLVPKLMRLSAGAPRDHHIAWDRFWSNVKTTGASGDVLWDSGSDHEMQGYVDRLRLHLDPGLPIVDIGCGNGSFTRQLAGHFPHAVGVDVSAHAVRRARAETAGLANISYAVADMTASGAGSGLLEELAVLDTGGQAGGGANVFIRGVLHVLGERDQHALAENARAITRANGRVFLAETNFRGNAVDYVTHLGATLRSIPAPLEGAIRGLPMPGRFGPKERSLAFPASRWELIEEGPTTIETMPLSNPARSDLIPGYFAVLEGRN
soluble on expression in E. coli: not soluble

GPGSMACARDHLRQTRTHQRHASTRDGQRMRAVSLAADPACTHPPTHTHTHIYTPIYVCRGFVCVTPQWRTELFNVVLLWRRAHTSLLSAACLCPYAQASPSCLHASFLSRLPRLSLSLSPCSCLHPHSTGVFAYIVFLRCRAATQNTSPVSSCVVRLVTRDLCAQSPTPPLPALCGHRNLVSLHRRKTPRLKRRVRTQATQRSDHRSSLIMPVFHAVMSVKESERVERIAPVKNRAWGLRFQCASCNEESTGMMYVNQTEQHERDGGMHNFVSKCKLCKADITADVLPVPAGTGYYSAEEENPANVIAAFEVRGGRPVELEIDNQWMIVTAGGGLFEDVDLSQEWYDYDESSQATVSVAGVSVDFEKSKKK
soluble on expression in E. coli: not soluble

MGSDKIHHHHHHMNRGKALQLVKPHLTEHRYQHTIGVMETAIDLAKLYGADQQKAELAAIFHDYAKFRDKNEMRTLIREKLSQQDILFYGDELLHAPCGAYYVREEVGIEDEDVLQAIRFHTTGRPNMSLLEKIIFLADYIEPNRQFPGVEKVRTQAKTDLNGAIISSLVNTITFLLKKNQPIYPDTLATYNQLLLEQK
soluble on expression in E. coli: not soluble

MQSPPHDPASALAIRNHYRQSQSRAARLRLLVDTGQELIQLPPEAMRKCVLQRACAFVAMDHGLLLEWGADNGVQTTARHGSKERLSTLETTADPLAIGPQWLERPGTHLPCVLLLPLRGADEGSFGTLVLANSVAISAPDGEDIESLQLLATLLAAHLENNRLLEALVARDRT
soluble on expression in E. coli: not soluble

MAYWLVKSEPSVWSWDQQVAKGAAGEAWTGVRNHSAKLHMVAMRRGDRAFYYHSNEGKEIVGIAEIIREAYPDPTDASGKFVCVDIKADKPLKTPVTLAAVKAEPRLADMALMKYSRLSVQPVTAEEWKLVCKMGGLLEHHHHHH
soluble on expression in E. coli: not soluble

MGSDKIHHHHHHMAKIHMVLQGKGGVGKSMIAATIAQYKAGKGQKPLCIDTDPVNATFEGYKALNVRRLNIMDGDEINTRNFDALVEMIASAEGDVIIDNGASSFVPLSHYLISNQVPALLQDMGHELVVHTVVTGGQALVDTVSGFAQLASQFPAECLFVVWLNPYWGPIEHEGKGFEQLKAYTTNKGRVSAIIQIPALKEETYGRDFAEMLQDRRTFDEALADSALTIMTRQRLKIVKTQLFAQLENAAVL
soluble on expression in E. coli: not soluble
